# Experimental data taken from patent publication US20210380703A1 (RIGEL PHARMACEUTICALS, published 2021).
# Target: Human ACVR2A (on cells) (human, UniProt P27037 20-513)
# Assay: cell-based or functional assay
# Human ACVR2A (on cells), sequence (P27037 20-513): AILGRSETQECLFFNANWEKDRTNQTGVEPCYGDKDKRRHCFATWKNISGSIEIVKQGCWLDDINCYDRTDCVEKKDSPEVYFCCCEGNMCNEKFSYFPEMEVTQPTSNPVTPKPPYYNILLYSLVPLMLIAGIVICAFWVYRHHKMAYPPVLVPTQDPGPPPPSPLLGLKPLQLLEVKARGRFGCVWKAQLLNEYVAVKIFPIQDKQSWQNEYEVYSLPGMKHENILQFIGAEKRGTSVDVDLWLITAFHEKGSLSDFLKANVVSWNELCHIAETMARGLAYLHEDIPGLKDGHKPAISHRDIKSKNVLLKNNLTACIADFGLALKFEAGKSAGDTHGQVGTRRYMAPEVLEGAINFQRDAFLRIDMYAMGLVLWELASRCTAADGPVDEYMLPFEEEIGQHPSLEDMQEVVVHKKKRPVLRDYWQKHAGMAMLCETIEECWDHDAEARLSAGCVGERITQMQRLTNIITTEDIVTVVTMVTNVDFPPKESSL
row,"Phospho-SMAD3 Human Skeletal Muscle GDF8 (AlphaLisa, primary human myotubes)",Binder
1,0.0318,"375_A06 (antibody, V domains shown) VH: EVQLLESGGGLVQPGGSLRLSCAASGFTFSSYSMNWVRQAPGKGLEWVAGINYNSGYKGYADSVKGRFTISRDNSKNTLYLQMNSLRAEDTAVYYCARSATWHDTHLDYWGQGTLVTVSS VL: DIQMTQSPSSLSASVGDRVTITCRASQSILTYVNWYQQKPGKAPKLLIYAASSLQSGVPSRFSGSGSGTDFTLTISSLQPEDFATYYCQQSYSTPLTFGGGTKVEIK"
2,0.0063,"375_C12 (antibody, V domains shown) VH: EVQLLESGGGLVQPGGSLRLSCAASGFTFSSYSMNWVRQAPGKGLEWVANINYNGGYTGYADSVKGRFTISRDNSKNTLYLQMNSLRAEDTAVYYCARSATWHDTHLDYWGQGTLVTVSS VL: DIQMTQSPSSLSASVGDRVTITCRASQSILTYLNWYQQKPGKAPKLLIYAATSRASGVPSRFSGSGSGTDFTLTISSLQPEDFATYYCQQSYDLPLTFGGGTKVEIK"
3,0.0266,"374_C11 (antibody, V domains shown) VH: EVQLLESGGGLVQPGGSLRLSCAASGFTFSSYSMNWVRQAPGKGLEWVAGINYNSGYKGYADSVKGRFTISRDNSKNTLYLQMNSLRAEDTAVYYCARSATWHDTHLDYWGQGTLVTVSS VL: DIQMTQSPSSLSASVGDRVTITCRASQSILTYLNWYQQKPGKAPKLLIYAATSRASGVPSRFSGSGSGTDFTLTISSLQPEDFATYYCQQSYESPLTFGGGTKVEIK"
4,0.0086,"376_B01 (antibody, V domains shown) VH: EVQLLESGGGLVQPGGSLRLSCAASGFTFDSYSMNWVRQAPGKGLEWVAGINYNGGYTSYADSVKGRFTISRDNSKNTLYLQMNSLRAEDTAVYYCARSATWHDTHLDYWGQGTLVTVSS VL: DIQMTQSPSSLSASVGDRVTITCRASQSILTYVNWYQQKPGKAPKLVIYAATSRASGVPSRFSGSGSGTDFTLTISSLQPEDFATYYCQQSYNLPLTFGGGTKVEIK"
5,0.0043,"376_A06 (antibody, V domains shown) VH: EVQLLESGGGLVQPGGSLRLSCAASGFTFDSYSMNWVRQAPGKGLEWVSGINYNSGYTSYADSVKGRFTISRDNSKNTLYLQMNSLRAEDTAVYYCARSATWHDTALDYWGQGTLVTVSS VL: DIQMTQSPSSLSASVGDRVTITCRASQSILSYLNWYQQKPGKAPKLVIYYVSNRASGVPSRFSGSGSGTDFTLTISSLQPEDFATYYCQQSYDNPLTFGGGTKVEIK"
6,0.0112,"375_G07 (antibody, V domains shown) VH: EVQLLESGGGLVQPGGSLRLSCAASGFTFDSYSMNWVRQAPGKGLEWVAGINYNSGYTSYADSVKGRFTISRDNSKNTLYLQMNSLRAEDTAVYYCARSATWHDTHLDYWGQGTLVTVSS VL: DIQMTQSPSSLSASVGDRVTITCRASQSILSYLNWYQQKPGKAPKLVIYAATSLASGVPSRFSGSGSGTDFTLTISSLQPEDFATYYCQQSYDLPLTFGGGTKVEIK"

# The next lines start with the binder.
row,Binder,"Phospho-SMAD3 Human Skeletal Muscle GDF8 (AlphaLisa, primary human myotubes)"
1,"367_A01 (antibody, V domains shown) VH: EVQLLESGGGLVQPGGSLRLSCAASGFTFSSYSMNWVRQAPGKGLEWVASINYNGGYTGYADSVKGRFTISRDNSKNTLYLQMNSLRAEDTAVYYCARSATWHDTHLDYWGQGTLVTVSS VL: DIQMTQSPSSLSASVGDRVTITCRASQSILTYLNWYQQKPGKAPKLLIYAATSRASGVPSRFSGSGSGTDFTLTISSLQPEDFATYYCQQSYDLPLTFGGGTKVEIK",0.0065
2,"374_C05 (antibody, V domains shown) VH: EVQLLESGGGLVQPGGSLRLSCAASGFTFDSYSMNWVRQAPGKGLEWVAGINYNSGYKSYADSVKGRFTISRDNSKNTLYLQMNSLRAEDTAVYYCARSATWHDTHLDYWGQGTLVTVSS VL: DIQMTQSPSSLSASVGDRVTITCRASQSIIRYLNWYQQKPGKAPKLVIYAATSRASGVPSRFSGSGSGTDFTLTISSLQPEDFATYYCQQSYDNPLTFGGGTKVEIK",0.0124
3,"369_G07 (antibody, V domains shown) VH: EVQLLESGGGLVQPGGSLRLSCAASGFTFSSYSMNWVRQAPGKGLEWVAGINYNGGYTSYADSVKGRFTISRDNSKNTLYLQMNSLRAEDTAVYYCARSATWHDTHLDYWGQGTLVTVSS VL: DIQMTQSPSSLSASVGDRVTITCRASQSILTYVNWYQQKPGKAPKLVIYAATSRASGVPSRFSGSGSGTDFTLTISSLQPEDFATYYCQQSYDNPLTFGGGTKVEIK",0.012
4,"373_G05 (antibody, V domains shown) VH: EVQLLESGGGLVQPGGSLRLSCAASGFTFSSYSMNWVRQAPGKGLEWVAGINYNGGYTSYADSVKGRFTISRDNSKNTLYLQMNSLRAEDTAVYYCARSATWHDTHLDYWGQGTLVTVSS VL: DIQMTQSPSSLSASVGDRVTITCRASQSILSYLNWYQQKPGKAPKLLIYAATSLASGVPSRFSGSGSGTDFTLTISSLQPEDFATYYCQQSYELPLTFGGGTKVEIK",0.0059
5,"374_A11 (antibody, V domains shown) VH: EVQLLESGGGLVQPGGSLRLSCAASGFTFSDYSMNWVRQAPGKGLEWVANINYNSGYKGYADSVKGRFTISRDNSKNTLYLQMNSLRAEDTAVYYCARSATWHDTHLDYWGQGTLVTVSS VL: DIQMTQSPSSLSASVGDRVTITCRASQSILSYVNWYQQKPGKAPKLVIYAATSRASGVPSRFSGSGSGTDFTLTISSLQPEDFATYYCQQSYSSPLTFGGGTKVEIK",0.0086
6,"373_E02 (antibody, V domains shown) VH: EVQLLESGGGLVQPGGSLRLSCAASGFTFDSYGMHWVRQAPGKGLEWVSGINYNGGYKGYADSVKGRFTISRDNSKNTLYLQMNSLRAEDTAVYYCARSATWHDTHLDYWGQGTLVTVSS VL: not shown",0.0049
7,"373_E06 (antibody, V domains shown) VH: EVQLLESGGGLVQPGGSLRLSCAASGFTFDSYSMNWVRQAPGKGLEWVAGINYNSGYKSYADSVKGRFTISRDNSKNTLYLQMNSLRAEDTAVYYCARSATWHDTHLDYWGQGTLVTVSS VL: DIQMTQSPSSLSASVGDRVTITCRASQSILRYLNWYQQKPGKAPKLLIYAATSLHSGVPSRFSGSGSGTDFTLTISSLQPEDFATYYCQQSYDNPLTFGGGTKVEIK",0.0005
8,"367_G07 (antibody, V domains shown) VH: EVQLLESGGGLVQPGGSLRLSCAASGFTFDSYSMNWVRQAPGKGLEWVANINYNGGYTGYADSVKGRFTISRDNSKNTLYLQMNSLRAEDTAVYYCARSATWHDTHLDYWGQGTLVTVSS VL: DIQMTQSPSSLSASVGDRVTITCRASQSILTYVNWYQQKPGKAPKLLIYAATSRASGVPSRFSGSGSGTDFTLTISSLQPEDFATYYCQQSYDNPLTFGGGTKVEIK",0.0068
9,"373_B08 (antibody, V domains shown) VH: EVQLLESGGGLVQPGGSLRLSCAASGFTFDSYSMNWVRQAPGKGLEWVANINYNSGYKGYADSVKGRFTISRDNSKNTLYLQMNSLRAEDTAVYYCARSATWHDTHLDYWGQGTLVTVSS VL: DIQMTQSPSSLSASVGDRVTITCRASQSILTYLNWYQQKPGKAPKLVIYAATSLASGVPSRFSGSGSGTDFTLTISSLQPEDFATYYCQQSYENPLTFGGGTKVEIK",0.0102
10,"373_B11 (antibody, V domains shown) VH: EVQLLESGGGLVQPGGSLRLSCAASGFTFSSYSMNWVRQAPGKGLEWVANINYNSGYKGYADSVKGRFTISRDNSKNTLYLQMNSLRAEDTAVYYCARSATWHDTHLDYWGQGTLVTVSS VL: DIQMTQSPSSLSASVGDRVTITCRASQSILSYLNWYQQKPGKAPKLLIYAATSRASGVPSRFSGSGSGTDFTLTISSLQPEDFATYYCQQSYDNPLTFGGGTKVEIK",0.0008
11,"369_A10 (antibody, V domains shown) VH: EVQLLESGGGLVQPGGSLRLSCAASGFTFDSYSMNWVRQAPGKGLEWVAGINYNSGYTGYADSVKGRFTISRDNSKNTLYLQMNSLRAEDTAVYYCARSATWHDTHLDYWGQGTLVTVSS VL: DIQMTQSPSSLSASVGDRVTITCRASQSILSYLNWYQQKPGKAPKLLIYAATSRASGVPSRFSGSGSGTDFTLTISSLQPEDFATYYCQQSYELPLTFGGGTKVEIK",0.0076
12,"370_E07 (antibody, V domains shown) VH: EVQLLESGGGLVQPGGSLRLSCAASGFTFDSYSMNWVRQAPGKGLEWVANINYNGGYTGYADSVKGRFTISRDNSKNTLYLQMNSLRAEDTAVYYCARSATWHDTHLDYWGQGTLVTVSS VL: DIQMTQSPSSLSASVGDRVTITCRASQSILTYLNWYQQKPGKAPKLLIYAATSRASGVPSRFSGSGSGTDFTLTISSLQPEDFATYYCQQSYDNPLTFGGGTKVEIK",0.0046
13,"372_D04 (antibody, V domains shown) VH: EVQLLESGGGLVQPGGSLRLSCAASGFTFSSYSMNWVRQAPGKGLEWVANINYNSGYTGYADSVKGRFTISRDNSKNTLYLQMNSLRAEDTAVYYCARSATWHDTHLDYWGQGTLVTVSS VL: DIQMTQSPSSLSASVGDRVTITCRASQSILTYLNWYQQKPGKAPKLLIYAATSLHSGVPSRFSGSGSGTDFTLTISSLQPEDFATYYCQQSYDLPLTFGGGTKVEIK",0.0114
